Laboratory results from article PMC9943653.
pKd: −log10 of the molar value.

Columns and labels:
Gal4 (1-147) [1] = experiment: ensemble FRET; settings: EMSA: 10 mM Tris-HCl pH 8, 130 mM NaCl, 10% glycerol, 0.0075% Tween-20, 0.5 nM DNA or nucleosome, smFRET: same Tris/NaCl/glycerol with 0.5% Tween-20, 0.1 mg/ml …
Gal4 (1-147) [2] = experiment: single-molecule FRET; settings: EMSA: 10 mM Tris-HCl pH 8, 130 mM NaCl, 10% glycerol, 0.0075% Tween-20, 0.5 nM DNA or nucleosome, smFRET: same Tris/NaCl/glycerol with 0.5% Tween-20, 0.1 mg/ml …

P26 nucleosome D17
K half (Gal4 (1-147) [1]; amino-C6-dT at nt 17 of strand 1): 9 nM

P26 nucleosome, 222 bp
pKd (Gal4 (1-147) [2]; kon eff 0.11 nM-1 s-1, koff 0.66 s-1): 8.21

P26 nucleosome, full Gal4 site (D1)
K half (Gal4 (1-147) [1]): 4.3 nM

P28 nucleosome, full Gal4 site (called P29 once in text)
K half (Gal4 (1-147) [1]; text prints P29): 1.7 nM

P31 nucleosome, 222 bp
pKd (Gal4 (1-147) [2]; kon eff 0.0008 nM-1 s-1, koff 0.83 s-1): 6.01

P31 nucleosome, full Gal4 site
K half (Gal4 (1-147) [1]): 500 nM

P33 nucleosome, full Gal4 site
K half (Gal4 (1-147) [1]): 240 nM

P36 nucleosome, 222 bp
pKd (Gal4 (1-147) [2]; kon eff 0.004 nM-1 s-1, koff 1.03 s-1): 6.59

P36 nucleosome, full Gal4 site
K half (Gal4 (1-147) [1]): 290 nM
